Where “and” joins values, the source holds several entries; their conditions need not be identical. Equal values may be shown once. Read-outs that look alike come from different tables or passages of the source.
How the values were obtained:
tubulin β-3 (TUBB3) = target: T1, tubulin β-3 (TUBB3) (Rattus norvegicus, UniProt Q4QRB4); test: LC-MS/MS of gp120 immunocomplex from lysates of gp120-treated neurons; assay type: binding; conditions: anti-gp120 immunoprecipitation
T1 construct: Neurons exposed to gp120IIIB were lysated in RIPA buffer; endogenous in cells; host or cells: primary cortical neurons from embryonic (E17-18) Sprague Dawley rats
Description: LC-MS/MS analysis identifies tubulin β-3 (TUBB3) as an interactor of gp120IIIB Top panel: Chromatogram of the whole data set of gp120 interactors. In orange is indicated the peak (retention time=46.45 minutes) associated to peptide ^337[…]^350 (SEQ ID NO: 15) of TUBB3. Bottom panel: The fragmentation spectrum of peptide of TUBB3 is shown to identify TUBB3 among gp120IIIB interactors. The series of y sequence coverage is highlighted.
Liquid chomatography-mass spectrometry (LC-MS/MS): Neurons exposed to gp120IIIB were lysated in RIPA buffer with protease and phosphatase inhibitors (THERMO FISHER […]®) at 4° C. and then incubated with mouse anti-gp120 antibody. Gp120 complex of interacting proteins was eluted from immobilized protein A beads, reduced, alkylated and digested with trypsin. The tryptic digests were analyzed by mass spectrometry, using a LTQ ORBITRAP XL™ hybrid FTMS (Fourier transform mass spectrometer) (THERMO FISHER […]®). Peptide separation was performed with solvent A (0.1% HCOOH in H2O) and solvent B (0.1% formic acid in ACN), using the following gradient: from 5% B for 1 minute to 60% B in 70 minutes. Peptides were analyzed using a precursor mass range of 300-5000 Da. MS/MS analyses were used to query a non-redundant protein database (rat.fasta) using the software SEQUEST™. […]

assembled MTs = test: SPR (BIACORE T200) binding to immobilized assembled microtubules; design: species or system Porcine
Description: (§1) Surface plasmon resonance (SPR). BIACORE® T200™ was used to determine the kinetic parameters for the binding of recombinant TUBB3, tubulin dimer, and assembled microtubules (ligands) to the various isoforms of gp120 or related peptides (analytes). Recombinant TUBB3, tubulin dimer, and assembled MTs were covalently attached to different flow cells of a carboxymethyldextran (CM5) sensor chip by amine coupling. The chip surface was activated for 720 sec at 10 μL/min with of 1:1 mixture of 0.1 M N-Hydroxysuccinimide (NHS) and 0.5 M 1-Ethyl-3-(-3-dimethylaminopropyl)-carbodiimide hydrochloride (EDC). […] After ligand capture, the surfaces were deactivated by injecting 1 M ethanolamine for 720 sec at 10 μL/min. HBS-P (10 mM HEPES, pH7.4, 150 mM NaCl, 0.05% P-20) with 2 mM MgCl2 used as the running buffer. Flow cell 1 on each chip was left empty and used for reference surface. TUBB3 (1040 RU), tubulin dimer (2086 RU), and assembled MTs (990 RU) were captured on the remaining 3 flow cells. Kinetic studies were performed by injecting different concentrations of the analytes in triplicate. The chip surface was regenerated by with 10 mM glycine pH 1.5 injected for 30 sec at a flow rate of 100 μL/min. Each sample was injected for 60 sec (contact time) followed by a dissociation time of 300 sec at a flow rate of 100 μL/min. Data was analyzed with BIACORE® T200™ Evaluation Software (version 1) to determine the equilibrium dissociation constant (KD) from a 1:1 binding model. Binding studies with peptides Helix A and Helix B were done in the same way as described above. Kinetic studies were performed by injecting different concentrations (20 μM, 10 μM, 5 μM, 2.5 μM, 1.25 μM and 0.625 μM) of Helix A and Helix B. Competition experiments with Helix A and Helix B were performed by mixing 100 nM gp120 isoforms with 10 μM of each peptide and injecting over the sensorchip surface.
Recombinant TUBB3, tubulin dimer, and assembled MTs from bovine brains were immobilized on a BIACORE® CM5 chip by amine coupling. […] The kinetics of interaction was analyzed using a BIACORE® T200™ instrument. […]

recombinant TUBB3 = target: T2, recombinant TUBB3 (Homo sapiens, UniProt Q13509); test: SPR (BIACORE T200) binding to immobilized TUBB3; conditions: for Kd: Ligand: TUBB3
T2 construct: purchased MyBioSource, San Diego, Calif
Description: as §1, with “TUBB3 (1040 RU), tubulin dimer (2086 RU), and assembled MTs (990 RU) were captured on the remaining 3 flow cells.” left out
(§2) Recombinant TUBB3, tubulin dimer, and assembled MTs from bovine brains were immobilized on a BIACORE® CM5 chip by amine coupling. Different concentrations of gp120s (from 3.13 to 100 nM) were injected over the surface in triplicates in each experiment. The kinetics of interaction was analyzed using a BIACORE® T200™ instrument. BiaEvaluation software was used to calculate binding affinities based on 1:1 binding model.

tubulin dimer = test: SPR (BIACORE T200) binding to immobilized tubulin dimer; design: species or system Porcine
Description: as §1, with “TUBB3 (1040 RU), tubulin dimer (2086 RU), and assembled MTs (990 RU) were captured on the remaining 3 flow cells.” left out
as §2, with “BiaEvaluation software was used to calculate binding affinities based on 1:1 binding model.” left out

[1] = 100 nM gp120 alone, 60 sec injection

T2 sequence (Q13509 whole entry): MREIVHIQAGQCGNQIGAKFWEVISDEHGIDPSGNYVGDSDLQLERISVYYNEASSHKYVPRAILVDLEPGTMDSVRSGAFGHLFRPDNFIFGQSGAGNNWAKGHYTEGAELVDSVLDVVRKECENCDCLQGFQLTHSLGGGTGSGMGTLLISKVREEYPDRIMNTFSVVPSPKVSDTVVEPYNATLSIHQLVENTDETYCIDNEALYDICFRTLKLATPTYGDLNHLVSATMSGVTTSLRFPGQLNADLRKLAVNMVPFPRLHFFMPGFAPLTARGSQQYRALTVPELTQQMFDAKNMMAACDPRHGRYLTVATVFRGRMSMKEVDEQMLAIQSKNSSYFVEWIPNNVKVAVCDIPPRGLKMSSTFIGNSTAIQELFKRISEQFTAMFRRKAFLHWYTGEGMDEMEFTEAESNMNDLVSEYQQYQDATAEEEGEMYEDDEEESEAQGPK
T1 sequence (P68370 whole entry): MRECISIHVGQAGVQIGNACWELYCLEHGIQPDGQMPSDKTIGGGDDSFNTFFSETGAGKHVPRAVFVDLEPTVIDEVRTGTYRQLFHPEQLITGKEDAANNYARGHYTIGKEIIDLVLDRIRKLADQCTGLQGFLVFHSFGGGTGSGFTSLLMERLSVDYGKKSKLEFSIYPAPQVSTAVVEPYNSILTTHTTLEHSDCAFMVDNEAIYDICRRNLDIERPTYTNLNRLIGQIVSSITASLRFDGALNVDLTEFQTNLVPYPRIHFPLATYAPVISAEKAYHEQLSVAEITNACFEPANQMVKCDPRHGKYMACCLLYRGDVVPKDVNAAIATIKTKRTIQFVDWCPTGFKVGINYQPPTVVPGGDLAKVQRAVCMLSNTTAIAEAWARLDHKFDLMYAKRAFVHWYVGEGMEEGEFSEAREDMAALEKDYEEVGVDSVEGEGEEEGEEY
T1 sequence (Q4QRB4 whole entry): as the sequence (Q13509 whole entry) above, with E441D counted along it

In the case of “gp120IIIB: HIV envelope protein gp120, strain IIIB, purchased from Immunodiagnostics”, the “TUBB3 identified among gp120 interactors (LC-MS/MS)” value (tubulin β-3 (TUBB3)) is reported as “interactor”, the “SPR response (4-1) RU, Fc4: Microtubules 970 RU” value (assembled MTs; [1]) is reported as 19 RU and 15 RU and 23.2 RU and the Kd (assembled MTs; Ligand: Assembled MTs, mean of two independent experiments) is reported as 10 nM. The “SPR response (2-1) RU, Fc2: Tubulin β-3 1092 RU” value (recombinant TUBB3; [1]) was 35 RU and 44 RU, the Kd (recombinant TUBB3; mean of two independent experiments, read-out: Mean KD) was 7.5 nM and the Kd (recombinant TUBB3; single experiment, gp120 3.13 to 100 nM, 1:1 binding model, read-out: KD) was 7.91 nM and 7.05 nM. The “SPR response (3-1) RU, Fc3: Tubulin Dimer 1900 RU” value (tubulin dimer; [1]) was 21 RU and 14 RU and 18.6 RU and the Kd (tubulin dimer; Ligand: Tubulin Dimer, mean of two independent experiments) was 12.3 nM.

Source: patent US9399663B2, “Competitive inhibitor of GP120” (priority 2014, dated 2016)
